# Laboratory results reported in IntAct's records for PubMed 26779609.
# B1: CDKN2AIP N-terminal-like protein (Homo sapiens), Q96HQ2 (parent)
# chain: MVGGEAAAAVEELVSGVRQAADFAEQFRSYSESEKQWKARMEFILRHLPDYRDPPDGSGRLDQLLSLSMVWANHLFLGCSYNKDLLDKVMEMADGIEVEDLPQFTTRSELMKKHQS
# partner: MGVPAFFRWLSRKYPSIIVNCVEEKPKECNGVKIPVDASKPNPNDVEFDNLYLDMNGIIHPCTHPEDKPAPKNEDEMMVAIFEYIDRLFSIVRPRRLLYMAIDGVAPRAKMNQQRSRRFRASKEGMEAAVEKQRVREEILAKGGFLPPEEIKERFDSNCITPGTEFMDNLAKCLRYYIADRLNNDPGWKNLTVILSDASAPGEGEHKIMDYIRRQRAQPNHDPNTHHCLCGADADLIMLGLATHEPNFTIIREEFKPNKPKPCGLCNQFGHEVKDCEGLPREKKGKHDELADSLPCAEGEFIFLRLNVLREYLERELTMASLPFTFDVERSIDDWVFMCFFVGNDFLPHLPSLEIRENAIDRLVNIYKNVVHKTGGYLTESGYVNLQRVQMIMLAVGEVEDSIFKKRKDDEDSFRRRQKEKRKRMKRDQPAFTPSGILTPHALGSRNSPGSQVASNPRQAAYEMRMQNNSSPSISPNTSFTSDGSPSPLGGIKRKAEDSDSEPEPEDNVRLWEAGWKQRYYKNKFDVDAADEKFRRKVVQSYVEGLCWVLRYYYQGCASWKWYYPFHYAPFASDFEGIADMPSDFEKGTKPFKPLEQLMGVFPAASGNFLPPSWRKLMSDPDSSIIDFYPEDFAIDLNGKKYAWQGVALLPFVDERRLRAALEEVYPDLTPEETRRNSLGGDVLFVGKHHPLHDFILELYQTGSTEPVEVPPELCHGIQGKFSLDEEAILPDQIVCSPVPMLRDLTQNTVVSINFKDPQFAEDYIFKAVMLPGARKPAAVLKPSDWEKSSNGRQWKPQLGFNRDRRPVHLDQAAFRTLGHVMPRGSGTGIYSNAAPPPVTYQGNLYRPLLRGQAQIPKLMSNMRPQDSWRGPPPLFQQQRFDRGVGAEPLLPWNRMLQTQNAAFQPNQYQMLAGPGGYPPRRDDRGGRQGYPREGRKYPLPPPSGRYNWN
# B2: Partner of xrn-2 protein 1 (Caenorhabditis elegans), Q21738 (parent)
# chain: MGKLEDVEAEKKLWESDDAWELRKAFMLAHYDDYPKIQLQCLSQLFINVTLLGCEYSQTLMQKIRTMGAGIAANKDRTKTGSYVKASAAKKRQAVKTSDLEGASDESKKVKMEKSPSPVARESFDERLGKLKASLAMTPHHLTGEQMMKTATNSCLMKWHVNKINQKIEITIDRYVAFRHTFSQYCVDPRDCAINTLIESILSCDAAVHEESYEIRFDGVPVDECYAKSVTRRLAKIKSAVSNGAHTVKGLTTYLDAVNMSMIQNTQKLEGWSQQLDLVTADLLLSSRVLSSTECTKPAMATIANQMSEDVCQLILNDKINVINSMKSHSSLAFQ
# partner: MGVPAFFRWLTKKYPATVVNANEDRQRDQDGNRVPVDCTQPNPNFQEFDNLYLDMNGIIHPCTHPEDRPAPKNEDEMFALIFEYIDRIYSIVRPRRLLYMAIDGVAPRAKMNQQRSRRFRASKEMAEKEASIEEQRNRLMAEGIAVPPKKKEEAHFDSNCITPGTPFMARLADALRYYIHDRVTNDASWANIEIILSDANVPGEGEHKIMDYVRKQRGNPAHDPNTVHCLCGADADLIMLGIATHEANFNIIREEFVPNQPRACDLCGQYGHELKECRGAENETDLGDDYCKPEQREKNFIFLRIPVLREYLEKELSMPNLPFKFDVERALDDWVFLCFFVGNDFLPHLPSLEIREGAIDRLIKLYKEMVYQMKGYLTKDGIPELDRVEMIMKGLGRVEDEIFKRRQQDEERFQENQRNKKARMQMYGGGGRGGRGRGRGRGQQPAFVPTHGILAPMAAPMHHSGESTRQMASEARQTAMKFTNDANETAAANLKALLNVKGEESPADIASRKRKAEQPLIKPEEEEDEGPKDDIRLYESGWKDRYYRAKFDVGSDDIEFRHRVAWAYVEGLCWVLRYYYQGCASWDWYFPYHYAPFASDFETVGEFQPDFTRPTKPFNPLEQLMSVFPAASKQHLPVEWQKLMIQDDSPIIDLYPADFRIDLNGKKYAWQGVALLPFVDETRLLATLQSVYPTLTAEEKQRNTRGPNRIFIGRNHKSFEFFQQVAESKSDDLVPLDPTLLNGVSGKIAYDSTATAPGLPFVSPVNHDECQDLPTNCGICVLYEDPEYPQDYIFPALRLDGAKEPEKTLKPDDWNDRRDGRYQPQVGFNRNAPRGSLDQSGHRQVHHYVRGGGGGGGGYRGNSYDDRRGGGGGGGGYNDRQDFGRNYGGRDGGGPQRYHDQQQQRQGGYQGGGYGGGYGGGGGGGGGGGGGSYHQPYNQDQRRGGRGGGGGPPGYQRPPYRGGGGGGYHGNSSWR
# Variants of: B1
# Details: with xrn2_human XRN2, Q9H0D6
row,Variant,effect of a mutation on the interaction
1,MVGGEAAAAVEELVSGVRQAADFAEQFRSYSESEKQWKARMEFILRHLPDYRDPPDGSGRLDQLLSLSMVWANHLFLGCSANKDLLDKVMEMADGIEVEDLPQFTTRSELMKKHQS [Y81A],disrupting interaction strength

# Variants of: B2
# Details: with xrn2_caeel xrn-2, Q9U299
row,Variant,effect of a mutation on the interaction
1,MGKLEDVEAEKKLWESDDAWELRKAFMLAHYDDYPKIQLQCLSQLFINVTLLGAEYSQTLMQKIRTMGAGIAANKDRTKTGSYVKASAAKKRQAVKTSDLEGASDESKKVKMEKSPSPVARESFDERLGKLKASLAMTPHHLTGEQMMKTATNSCLMKWHVNKINQKIEITIDRYVAFRHTFSQYCVDPRDCAINTLIESILSCDAAVHEESYEIRFDGVPVDECYAKSVTRRLAKIKSAVSNGAHTVKGLTTYLDAVNMSMIQNTQKLEGWSQQLDLVTADLLLSSRVLSSTECTKPAMATIANQMSEDVCQLILNDKINVINSMKSHSSLAFQ [C54A],disrupting interaction strength
2,MGKLEDVEAEKKLWESDDAWELRKAFMLAHYDDYPKIQLQCLSQLFINVTLLGCEASQTLMQKIRTMGAGIAANKDRTKTGSYVKASAAKKRQAVKTSDLEGASDESKKVKMEKSPSPVARESFDERLGKLKASLAMTPHHLTGEQMMKTATNSCLMKWHVNKINQKIEITIDRYVAFRHTFSQYCVDPRDCAINTLIESILSCDAAVHEESYEIRFDGVPVDECYAKSVTRRLAKIKSAVSNGAHTVKGLTTYLDAVNMSMIQNTQKLEGWSQQLDLVTADLLLSSRVLSSTECTKPAMATIANQMSEDVCQLILNDKINVINSMKSHSSLAFQ [Y56A],disrupting interaction strength
